# Measurements from article PMC6842113 (Neuron, 2019).
# B1: PSD-95 PDZ2 (domain or fragment, UniProt P78352-1 155-247, looked up)
# chain: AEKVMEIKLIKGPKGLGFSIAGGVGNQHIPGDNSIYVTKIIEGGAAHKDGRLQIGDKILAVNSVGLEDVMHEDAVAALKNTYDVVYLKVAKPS
# B2: Stg_CT WT (domain or fragment, mouse, UniProt O88602 203-323, looked up)
# chain: DRHKQLRATARATDYLQASAITRIPSYRYRYQRRSRSSSRSTEPSHSRDASPVGVKGFNTLPSTEISMYTLSRDPLKAATTPTATYNSDRDNSFLQVHNCIQKDSKDSLHANTANRRTTPV
# B3: Stg_CT Δ4 (domain or fragment, mouse, UniProt O88602 203-319, looked up)
# chain: DRHKQLRATARATDYLQASAITRIPSYRYRYQRRSRSSSRSTEPSHSRDASPVGVKGFNTLPSTEISMYTLSRDPLKAATTPTATYNSDRDNSFLQVHNCIQKDSKDSLHANTANRR
# Tests used:
# [1] = biological target: B2; test: ITC
# [2] = biological target: PSD-95 PSG (UniProt P78352-1 309-724); test: ITC
# [3] = biological target: PSD-95 NPDZ12 (UniProt P78352-1 1-247); test: NMR titration
binder,measurement,setting,value
B1,binding result,[1],binds
B2,Kd,[2],~5.3 µM
B3,binding result,[3],binds
